Experiments:
[1] = biological target: T1, MHC class II products on splenic antigen-presenting cells (APC) (Mus musculus, UniProt P01921+P04228); assay: Inhibition of peptide binding to APC by anti-Ia mAb; design: concentration or dose not given beside the values; settings: BALB/c, H-2 d
T1 construct: Splenic adherent cells (10^6/100 μl/tube) isolated from BALB/c, SJL, C3H.SW or C57BL/6 mice; from tissue; host or cells: mouse spleen adherent cells (BALB/c, SJL, C3H.SW, C57BL/6)
T1 sequence (P04228 24-256): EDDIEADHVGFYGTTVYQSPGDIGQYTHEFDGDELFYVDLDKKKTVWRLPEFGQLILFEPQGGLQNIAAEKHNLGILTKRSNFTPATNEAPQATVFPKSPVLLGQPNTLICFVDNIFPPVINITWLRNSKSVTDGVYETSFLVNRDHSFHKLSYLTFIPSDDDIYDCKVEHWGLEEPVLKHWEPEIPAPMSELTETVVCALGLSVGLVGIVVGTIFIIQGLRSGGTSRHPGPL
T1 sequence (P01921 28-265): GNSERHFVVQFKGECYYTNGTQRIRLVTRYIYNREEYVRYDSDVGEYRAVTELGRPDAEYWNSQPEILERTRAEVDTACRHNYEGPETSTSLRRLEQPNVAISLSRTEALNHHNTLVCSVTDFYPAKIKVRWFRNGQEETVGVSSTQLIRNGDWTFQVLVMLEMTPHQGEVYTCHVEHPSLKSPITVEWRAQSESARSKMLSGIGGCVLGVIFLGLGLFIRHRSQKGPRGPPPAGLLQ
Description: (§1) Spleen cells suspended in RPMI 1640 medium containing 10% FCS were incubated in Petri dishes for 60 min at 37° C. Thereafter, non-adherent cells were removed, the plates were washed, and the adherent cells were collected from the plates using a rubber policeman (Costar, Mass., USA). These cells (1×10^6/100 μl/tube) were incubated with the biotinylated peptides in PBS containing 0.1% BSA (high purity grade, Amresco, Ohio, USA) for 16 hr at 37° C., followed by incubation with phycoerythrin (PE)-streptavidin (Jackson ImmunoResearch) for 30 min at 4° C. Thereafter the samples were incubated with biotinylated anti-streptavidin (1:60, Vector Laboratories, Burlingame, Calif.) and for an additional period with PE-streptavidin, all for 30 min at 4° C. The cells were washed twice with cold PBS/BSA solution after each incubation. Thereafter, cells were analyzed by flow cytometry using the FACSort cytometer and CELLQuest software (Beckton-Dickinson, Mountain View, Calif.). […]
(§2) Binding of the CDR-based peptides Ia and IIIa to APC was determined as described in Materials and Methods herein and the results are shown in Table 2. […] The results are shown in Table 3: Inhibition of binding was specific and ranged from 60% to 100%.

[2] = biological target: T2, MHC class II products on splenic antigen-presenting cells (APC) (Mus musculus, UniProt P06345+P14437); assay: as above; design: concentration or dose not given beside the values; settings: SJL, H-2 s
T2 construct: Splenic adherent cells (10^6/100 μl/tube) isolated from BALB/c, SJL, C3H.SW or C57BL/6 mice; from tissue; host or cells: mouse spleen adherent cells (BALB/c, SJL, C3H.SW, C57BL/6)
T2 sequence (P14437 1-233): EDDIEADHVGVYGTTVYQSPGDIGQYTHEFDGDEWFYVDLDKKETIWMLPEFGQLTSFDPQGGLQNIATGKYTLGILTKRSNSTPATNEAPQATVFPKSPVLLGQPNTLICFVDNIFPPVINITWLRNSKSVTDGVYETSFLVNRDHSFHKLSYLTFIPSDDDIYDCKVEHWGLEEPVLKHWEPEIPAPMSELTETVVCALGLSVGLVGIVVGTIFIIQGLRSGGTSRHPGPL
T2 sequence (P06345 28-263): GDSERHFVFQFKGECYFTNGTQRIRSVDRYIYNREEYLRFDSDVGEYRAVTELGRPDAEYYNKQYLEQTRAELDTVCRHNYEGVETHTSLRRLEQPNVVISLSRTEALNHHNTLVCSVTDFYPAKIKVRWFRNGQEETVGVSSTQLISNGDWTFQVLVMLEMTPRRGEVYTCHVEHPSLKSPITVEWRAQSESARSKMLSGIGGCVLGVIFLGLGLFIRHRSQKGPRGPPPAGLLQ
Description: as §1, §2

[3] = biological target: T3, MHC class II products on splenic antigen-presenting cells (APC) (Mus musculus, UniProt P14434+P14483); assay: as above; design: concentration or dose not given beside the values
T3 construct: Splenic adherent cells (10^6/100 μl/tube) isolated from BALB/c, SJL, C3H.SW or C57BL/6 mice; from tissue; host or cells: mouse spleen adherent cells (BALB/c, SJL, C3H.SW, C57BL/6)
T3 sequence (P14434 24-256): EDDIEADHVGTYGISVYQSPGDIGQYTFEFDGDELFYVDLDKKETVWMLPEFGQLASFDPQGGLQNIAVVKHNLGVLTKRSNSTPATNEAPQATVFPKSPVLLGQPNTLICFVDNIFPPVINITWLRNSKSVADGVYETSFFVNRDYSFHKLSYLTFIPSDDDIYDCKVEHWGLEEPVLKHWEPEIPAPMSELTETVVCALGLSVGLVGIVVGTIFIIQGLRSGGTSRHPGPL
T3 sequence (P14483 28-265): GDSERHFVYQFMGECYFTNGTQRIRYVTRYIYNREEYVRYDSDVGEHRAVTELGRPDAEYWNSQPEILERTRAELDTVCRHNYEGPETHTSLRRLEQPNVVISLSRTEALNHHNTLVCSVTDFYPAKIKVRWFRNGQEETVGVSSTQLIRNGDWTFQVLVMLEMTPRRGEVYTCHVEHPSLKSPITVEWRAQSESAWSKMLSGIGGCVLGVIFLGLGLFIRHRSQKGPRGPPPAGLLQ
Description: as §1, §2

SJL/J and BALB/c mice = assay: Anti-nuclear extract (NE) antibodies in sera of immunized mice (ELISA); format: in vivo, mouse
Description: Five groups of mice were immunized according to Example 2, and their sera were tested for the presence of anti-NE antibodies.
ELISA was utilized to test the presence of the anti-NE antibodies in the sera of the mice, as follows: Plates (Nunc) were coated with 5 μg/ml of HeLa cells NE for 90 min. Thereafter plates were washed and blocked, and ELISA was continued the next day, as described in Example 2 for anti-DNA antibodies.

[4] = C3H.SW, H-2 b, mAb anti I-A^b (34-5-3)
[5] = C3H.SW, H-2 b, mAb anti I-A^d (MKD6)
[6] = C57BL/6, H-2 b, mAb anti I-A^b (34-5-3)
[7] = C57BL/6, H-2 b, mAb anti I-A^d (MKD6)
[8] = BALB/c mice immunized as in Example 2
[9] = SJL/J mice immunized as in Example 2

% inhibition of binding to APC ([1]; mAb anti I-A^b (34-5-3)) [%] | % inhibition of binding to APC ([1]; mAb anti I-A^d (MKD6)) [%] | % inhibition of binding to APC ([2]; mAb anti I-A^d (MKD6)) [%] | % inhibition of binding to APC ([2]; mAb anti I-A^s (10.3.6.2)) [%] | % inhibition of binding to APC [3, 4] [%] | % inhibition of binding to APC [3, 5] [%] | % inhibition of binding to APC [3, 6] [%] | % inhibition of binding to APC [3, 7] [%] | Substance | anti-NE antibodies in sera (SJL/J and BALB/c mice; [8]) | anti-NE antibodies in sera (SJL/J and BALB/c mice; [9])
0 | 76.7 | 0 | 100 | 60 | 0 | 82 | 0 | TGYYMQWVKQSPEKSLEWIG [peptide Ia] | high levels of anti-NE antibodies | lower levels of anti-NE antibodies
0 | 100 | 0 | 92.8 | 84.4 | 25 | 59.3 | 0 | YYYCARFLWEPYAMDYWGQGS (YYCARFLWEPYAMDYWGQGS) [peptide IIIa, based on the CDR3 region of the VH chain of mAb 5G12] | very low level of anti-NE antibodies | high level of anti-NE antibodies
